# Values quoted from earlier work in article PMC4604100, “Melanocortin agonists stimulate lipolysis in human adipose tissue explants but not in adipocytes” (BMC Research Notes, 2015).
# B1: Agouti/ASIP: agouti/agouti signaling protein, endogenous melanocortin receptor antagonist (protein, UniProt P42127 23-132, looked up)
# Agouti-signaling protein: HLPPEEKLRDDRSLRSNSSVNLLDVPSVSIVALNKKSKQIGRKAAEKKRSSKKEASMKKVVRPRTPLSAPCVATRNSCKPPAPACCDPCASCQCRFFRSACSCRVLSLNC
# Test system: MC1R
# Conditions: ref [24]
# Description: It is still rather unclear as to what extent peripherally expressed MCRs regulate metabolism. […] In addition, POMC expression has been identified in peripheral tissues such as the skin, testes, ovaries, placenta, adrenal glands, gastrointestinal tract, immune cells and tumors. The peripheral melanocortin system was initially examined f ...
molecule,measurement,value
B1,antagonism on MC1R (in words),high affinity antagonist
